Source: patent US20040261142A1

Biological target: mutant pp60c-Src tyrosine kinase (SRC 531 mutant, truncated c-Src) (human) (UniProt P12931)
Assay: cell-based or functional assay

K50% (competitive inhibition of enolase phosphorylation): 5 µM
Km (kinase reaction, 32P incorporation into peptide, phosphocellulose paper): 2 µM
Vmax (kinase reaction, 32P incorporation into peptide, phosphocellulose paper): 0.9 µM/mg/min
Substance: peptide Ala-Glu-Glu-Glu-Ile-Tyr-Gly-Glu-Phe-Glu-Ala-Lys-Lys-Lys-Lys
